Reference: article PMC12325699, “Utilizing native nanodiscs to isolate active TRPC3 channels and expand structural analysis capabilities” (Scientific Reports, 2025)

Molecular target: the molecule itself
Test: negative-stain electron microscopy; purified TRPC3 at 0.1 mg/mL, extracted from Expi293F membranes with DDM or with DDDG, on a TEM grid, stained with 1% uranyl acetate

B1: canonical transient receptor potential channel 3 (TRPC3), TRPC3-YFP-3xFLAG construct (natural protein, human, UniProt Q13507-3 1-848, looked up)
chain: MEGSPSLRRMTVMREKGRRQAVRGPAFMFNDRGTSLTAEEERFLDAAEYGNIPVVRKMLEESKTLNVNCVDYMGQNALQLAVGNEHLEVTELLLKKENLARIGDALLLAISKGYVRIVEAILNHPGFAASKRLTLSPCEQELQDDDFYAYDEDGTRFSPDITPIILAAHCQKYEVVHMLLMKGARIERPHDYFCKCGDCMEKQRHDSFSHSRSRINAYKGLASPAYLSLSSEDPVLTALELSNELAKLANIEKEFKNDYRKLSMQCKDFVVGVLDLCRDSEEVEAILNGDLESAEPLEVHRHKASLSRVKLAIKYEVKKFVAHPNCQQQLLTIWYENLSGLREQTIAIKCLVVLVVALGLPFLAIGYWIAPCSRLGKILRSPFMKFVAHAASFIIFLGLLVFNASDRFEGITTLPNITVTDYPKQIFRVKTTQFTWTEMLIMVWVLGMMWSECKELWLEGPREYILQLWNVLDFGMLSIFIAAFTARFLAFLQATKAQQYVDSYVQESDLSEVTLPPEIQYFTYARDKWLPSDPQIISEGLYAIAVVLSFSRIAYILPANESFGPLQISLGRTVKDIFKFMVLFIMVFFAFMIGMFILYSYYLGAKVNAAFTTVEESFKTLFWSIFGLSEVTSVVLKYDHKFIENIGYVLYGIYNVTMVVVLLNMLIAMINSSYQEIEDDSDVEWKFARSKLWLSYFDDGKTLPPPFSLVPSPKSFVYFIMRIVNFPKCRRRRLQKDIEMGMGNSKSRLNLFTQSNSRVFESHSFNSILNQPTRYQQIMKRLIKRYVLKAQVDKENDEVNEGELKEIKQDISSLRYELLEDKSQATEELAILIHKLSEKLNPSMLRCE
notes: a TEV site stands between the tags and TRPC3 by the plasmid's name; The protein was purified by its FLAG tag; no TEV cleavage step is described, so the tags were probably still on the protein in the electron microscopy; also called TRPC3–3 x FLAG–YFP; 3xFLAG-YFP; source: Expi293F, transiently transfected; membranes extracted with DDM or DDDG
  stoichiometry N: 4
